One assay relates to RAJI-CD19-KO cells. Put plainly: JNG assay, co-culture with RAJI-CD19-KO cells. Particulars: co-culture with Raji-CD19-KO. The class given is cell-based. The procedure, abridged: (§1)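 Jurkat NFAT-GFP (JNG) cells stably transduced with SARs by lentivirus, with drug selection where the construct carried a resistance gene, then co-cultured with target cells at E:T ~1:2 for ~4–18 h. % GFP-positive cells measured by FACS against parental JNG; +/- to 5+ correspond to ~5–50% GFP-positive.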

In the next assay the test system is SKOV-3 cells. As to the kind of experiment: JNG assay, co-culture with SKOV-3 cells. It counts as cell-based. Particulars: co-culture with SKOV-3. The method, then:
Cellular supernatant is collected and assayed for the induction of cytokines (e.g., IL2).
JNG (Jurkat cells expressing EGFP under an NFAT promoter) were infected with lentiviral vectors encoding different single chain and multi-chain SARs by spinfection in the presence of 8 µg/ml of Polybrene® (Sigma, Catalog no. H9268). The Jurkat-NFAT-GFP cells are engineered in such a way that the IL-2 promoter, which carries NFAT binding sites, is cloned upstream of the GFP gene. These cells have been used to study signaling via TCR and CAR. The different SARs were stably expressed in Jurkat NFAT-GFP cells by lentiviral mediated gene transfer, followed by selection with puromycin or blasticidin. No drug selection was used in case the construct lacked an antibiotic resistance gene. The SAR-expressing Jurkat-NFAT-GFP cells were cocultured with the target cells at E:T ratio of approximately 1:2 for approximately 4 hours to 18 hours. When the interaction between SIRs and their target antigen results in activation of the NFAT pathway, GFP expression is induced. […] GFP expression was monitored by FACS analysis. The Jurkat-NFAT-GFP (parental) cells were used as control. The structure of different constructs can be determined based on their names. […] The sequence of the other constructs in the table can be similarly determined from their names and by referring to the different Tables of this disclosure that provide the names and SEQ ID NO of the different modules. Alternatively, the composition and modular architecture of the different SAR constructs can be determined from their sequences by bioinformatics tools, including using nucleic acid and amino acids homology searches. A SAR is considered positive in the assay in case the SAR expressing Jurkat-NFAT-GFP cells show greater % GFP positive cells when cultured with the target cell line as compared to parental Jurkat-NFAT-GFP cells. […] In general, the number +/-, +, 2+, 3+, 4+, 5+ refer to approximately 5%, 10%, 20%, 30%, 40% and 50% GFP positive cells. The % of GFP induction in the above assay is dependent not only the relative strength of the SAR but also, among other factors, on the relative level of expression of the SAR in the JNG cells and the relative level of expression of the target antigen in the target cell line. To control for the difference in gene transduction efficiency of the different SAR constructs, the experiment was conducted with JNG cells transduced with SAR constructs co-expressing a drug resistance gene (e.g., puromycin or PAC) followed by drug selection to generate a stable population of SAR-expressing cells. It is to be noted that the drug resistance gene (e.g., PAC) in the SAR constructs is optional and in vivo studies were conducted with SAR constructs lacking the PAC gene.

For the next assay, the system named is L363 cells. As to the kind of experiment: JNG assay, co-culture with L363 cells. It counts as cell-based. To be noted: co-culture with L363. In outline:
as §1

The subject of the next assay is Nalm6 cells. As to the kind of experiment: JNG assay, co-culture with Nalm6 cells. The class given is cell-based. Particulars: co-culture with Nalm6. In outline: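 Values are semi-quantitative grades of GFP induction, each step approximating 10% more GFP+ cells (5+ ≈50%) above parental reporter cells, measured by FACS after SAR-transduced JNG cells were cultured with targets at ~1:2 E:T for ~4–18 h.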

The next assay relates to KMH2 (PSMA-low) cells. Put plainly: JNG NFAT-GFP induction on co-culture with KMH2.
The next assay has as its system Huh-7 cells. Put plainly: JNG NFAT-GFP induction on co-culture with Huh-7.

“Also recorded” adds a separate entry of the source.

B1: 22177 (protein)
chain: MALPVTALLLPLALLLHAARPLFNQEVQIPLTESYCGPCPKNWICYKNNCYQFFDESKNWYESQASCMSQNASLLKVYSKEDQDLLKLVKSYHWMGLVHIPTNGSWQWEDGSILSPNLLTIIEMQKGDCALYASSFKGYIENCSTPNTYICMQRTVGGGGSGGGGSGGGGSDLFNQEVQIPLTESYCGPCPKNWICYKNNCYQFFDESKNWYESQASCMSQNASLLKVYSKEDQDLLKLVKSYHWMGLVHIPTNGSWQWEDGSILSPNLLTIIEMQKGDCALYASSFKGYIENCSTPNTYICMQRTVGTGGGGSGGGGSGGGGSEFDIQMTQSPSSLSASVGDRVTITCKASDHINNWLAWYQQKPGQAPKLLIYGATTLETGVPSRFSGSGSGTDYTLTISSLQPEDFATYYCQQSWNTPWTFGQGTKLEIKRLEDLKNVFPPEVAVFEPSKAEIAHTQKATLVCLATGFYPDHVELSWWVNGKEVHSGVCTDPQPLKEQPALNDSRYCLSSRLRVSATFWQNPRNHFRCQVQFYGLSENDEWTQDRAKPVTQIVSAEAWGRADCGITSASYHQGVLSATILYEILLGKATLYAVLVSALVLMAMVKRKDSRGRAKRSGSGATNFSLLKQAGDVEENPGPTSATMDWIWRILFLVGAATGAHSGPQVQLQESGGGLAQAGGSLRLSCAASGRTFSMGWFRQAPGKEREFVAAITYSGGSPYYASSVRGRFTISRDNAKNTVYLQMNSLKPEDTAVYYCAANPTYGSDWNAENWGQGTQVTVSSGSGGGGSGGGGSGGGGSFEQVQLQQPGAELVKPGASVKMSCKASGYAFSSYWINWMKQKPGQGLEWIGQIYPGDGDTNYNGKFKGRATLTADTSSSTAYMQLSSLTSEDSAVYFCARSITTVVGCAMDYWGQGTSVTVSSTRIQNPDPAVYQLRDSKSSDKSVCLFTDFDSQTNVSQSKDSDVYITDKCVLDMRSMDFKSNSAVAWSNKSDFACANAFNNSIIPEDTFFPSSDVPCDVKLVEKSFETDTNLNFQNLSVIGFRILLLKVAGFNLLMTLRLWSSRAKRSGSGVKQTLNFDLLKLAGDVESNPGPSRGHMTEYKPTVRLATRDDVPRAVRTLAAAFADYPATRHTVDPDRHIERVTELQELFLTRVGLDIGKVWVADDGAAVAVWTTPESVEAGAVFAEIGPRMAELSGSRLAAQQQMEGLLAPHRPKEPAWFLATVGVSPDHQGKGLGSAVVLPGVEAAERAGVPAFLETSAPRNLPFYERLGFTVTADVEVPEGPRTWCMTRKPGA
For the molecule B1, in the assay with RAJI-CD19-KO cells, the “NFAT-GFP ASSAY: Raji-CD19-KO” value is 2+ (refer to approximately 5%, 10%, 20%, 30%, 40% and 50% GFP positive cells). In addition, the “NFAT-GFP ASSAY: SKOV-3” value with SKOV-3 cells is 2+ (refer to approximately 5%, 10%, 20%, 30%, 40% and 50% GFP positive cells). In addition, the “NFAT-GFP ASSAY: L363” value with L363 cells was “+ (refer to approximately 5%, 10%, 20%, 30%, 40% and 50% GFP positive cells)”. Also, in the assay with Nalm6 cells, the “NFAT-GFP ASSAY: Nalm6” value was 3+ (refer to approximately 5%, 10%, 20%, 30%, 40% and 50% GFP positive cells).

B2: 21884 (protein)
chain: MALPVTALLLPLALLLHAARPDIQMTQSPSSLSASVGDRVTITCKASQDVGTAVDWYQQKPGKAPKLLIYWASTRHTGVPSRFSGSGSGTDFTLTISSLQPEDFATYYCQQYNSYPLTFGQGTKVEIKRLETIFLPSIAETKLQKAGTYLCLLEKFFPDVIKIHWQEKKSNTILGSQEGNTMKTNDTYMKFSWLTVPEKSLDKEHRCIVRHENNKNGVDQEIIFPPIKTDVITMDPKDNCSKDANDTLLLQLTNTSAYYMYLLLLLKSVVYFAIITCCLLRRTAFCCNGEKSRAKRSGSGATNFSLLKQAGDVEENPGPTSMDWIWRILFLVGAATGAHSFEVQLVESGGGLVQPGGSLRLSCAASGYTFTEYTIHWVRQAPGKGLEWVANINPNNGGTTYNQKFEDRFTISRDNSKNTLYLQMNSLRAEDTAVYYCARGWNFDYWGQGTLVTVSSTRPHTKPSVFVMKNGTNVACLVKEFYPKDIRINLVSSKKITEFDPAIVISPSGKYNAVKLGKYEDSNSVTCSVQHDNKTVHSTDFEVKTDSTDHVKPKETENTKQPSKSCHKPKAIVHTEKVNMMSLTVLGLRMLFAKTVAVNFLLTAKLFFLRAKRSGSGVKQTLNFDLLKLAGDVESNPGPSRGHMTEYKPTVRLATRDDVPRAVRTLAAAFADYPATRHTVDPDRHIERVTELQELFLTRVGLDIGKVWVADDGAAVAVWTTPESVEAGAVFAEIGPRMAELSGSRLAAQQQMEGLLAPHRPKEPAWFLATVGVSPDHQGKGLGSAVVLPGVEAAERAGVPAFLETSAPRNLPFYERLGFTVTADVEVPEGPRTWCMTRKPGA
As for B2, the “NFAT-GFP ASSAY: KMH2” value with KMH2 (PSMA-low) cells is reported as “negligible GFP induction”. In the assay on Huh-7 cells, the “NFAT-GFP ASSAY: Huh-7” value is given as “negligible GFP induction”.

B3: 21886 (protein)
chain: MALPVTALLLPLALLLHAARPDIQMTQSPSSLSASVGDRVTITCKASQDVGTAVDWYQQKPGKAPKLLIYWASTRHTGVPSRFSGSGSGTDFTLTISSLQPEDFATYYCQQYNSYPLTFGQGTKVEIKRLEAEISHTQKATLVCLATGFYPDHVELSWWVNGKEVHSGVCTDPQPLKEQPALNDSRYCLSSRLRVSATFWQNPRNHFRCQVQFYGLSENDEWTQDRAKPVTQIVSAEAWGRADCGFTSESYQQGVLSATILYEILLGKATLYAVLVSALVLMAMVKRKDSRGRAKRSGSGATNFSLLKQAGDVEENPGPTSMDWIWRILFLVGAATGAHSFEVQLVESGGGLVQPGGSLRLSCAASGYTFTEYTIHWVRQAPGKGLEWVANINPNNGGTTYNQKFEDRFTISRDNSKNTLYLQMNSLRAEDTAVYYCARGWNFDYWGQGTLVTVSSTRDKSVCLFTDFDSQTNVSQSKDSDVYITDKCVLDMRSMDFKSNSAVAWSNKSDFACANAFNNSIIPEDTFFPSPESSCDVKLVEKSFETDTNLNFQNLSVIGFRILLLKVAGFNLLMTLRLWSSRAKRSGSGVKQTLNFDLLKLAGDVESNPGPSRGHMTEYKPTVRLATRDDVPRAVRTLAAAFADYPATRHTVDPDRHIERVTELQELFLTRVGLDIGKVWVADDGAAVAVWTTPESVEAGAVFAEIGPRMAELSGSRLAAQQQMEGLLAPHRPKEPAWFLATVGVSPDHQGKGLGSAVVLPGVEAAERAGVPAFLETSAPRNLPFYERLGFTVTADVEVPEGPRTWCMTRKPGA
On to B3, for which the “NFAT-GFP ASSAY: KMH2” value with KMH2 (PSMA-low) cells was “negligible GFP induction; also recorded: negligible activity”. In the assay with Huh-7 cells, the “NFAT-GFP ASSAY: Huh-7” value is “negligible GFP induction; also recorded: negligible activity”.

B4: 21882 (protein)
chain: MALPVTALLLPLALLLHAARPDIQMTQSPSSLSASVGDRVTITCKASQDVGTAVDWYQQKPGKAPKLLISWASTRHTGVPSRFSGSGSGTDFTLTISSLQPEDFATYFCQQYNSYPLTFGQGTKVEIKRTVLEDLKNVFPPEVAVFEPSEAEISHTQKATLVCLATGFYPDHVELSWWVNGKEVHSGVCTDPQPLKEQPALNDSRYCLSSRLRVSATFWQNPRNHFRCQVQFYGLSENDEWTQDRAKPVTQIVSAEAWGRADCGFTSESYQQGVLSATILYEILLGKATLYAVLVSALVLMAMVKRKDSRGRAKRSGSGATNFSLLKQAGDVEENPGPTSMDWIWRILFLVGAATGAHSFEVQLVESGGGLVQPGGSLRLSCAASGFTFTDYTIHWVRQAPGKGLEWVANINPNNGGTTYNQKFEDRFTISRDNSKNTLYLQMNSLRAEDTAVYYCARGWNFDYWGQGTLVTVSSTRIQNPDPAVYQLRDSKSSDKSVCLFTDFDSQTNVSQSKDSDVYITDKCVLDMRSMDFKSNSAVAWSNKSDFACANAFNNSIIPEDTFFPSPESSCDVKLVEKSFETDTNLNFQNLSVIGFRILLLKVAGFNLLMTLRLWSSRAKRSGSGVKQTLNFDLLKLAGDVESNPGPSRGHMTEYKPTVRLATRDDVPRAVRTLAAAFADYPATRHTVDPDRHIERVTELQELFLTRVGLDIGKVWVADDGAAVAVWTTPESVEAGAVFAEIGPRMAELSGSRLAAQQQMEGLLAPHRPKEPAWFLATVGVSPDHQGKGLGSAVVLPGVEAAERAGVPAFLETSAPRNLPFYERLGFTVTADVEVPEGPRTWCMTRKPGA
Consider B4, for which the “NFAT-GFP ASSAY: KMH2” value in the assay on KMH2 (PSMA-low) cells is recorded as “negligible GFP induction”. Also, the “NFAT-GFP ASSAY: Huh-7” value with Huh-7 cells was “negligible GFP induction”.

These data come from patent US20230212319A1, “NOVEL ANTIGEN BINDING DOMAINS AND SYNTHETIC ANTIGEN RECEPTORS INCORPORATING THE SAME” (University of Southern California, priority 2020, published 2023).
